Drawing on the supplement of paper PMC10567573, this text covers protein stability index for 94 variants.

Sequences and labels used below:
B1: ZC3H15 (parent)
chain: ENLFTGEDLDELEEELNTLDLEE
B2: WEE1 (parent)
chain: FLGSSFSPVRCGGPGDASPRGCGA
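Note: lentivirally expressed fusions sorted by FACS into six bins by GFP to DsRed ratio, PSI derived from sequencing read proportions per bin multiplied by bin number.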

The first series covers variants of B1. As to the kind of experiment: protein stability index of a GFP-peptide fusion (GPS, HEK-293T) (PSI 1-6); higher = more stable. The following applies: c terminus: native.
On to HNLFTGEDLDELEEELNTLDLEE [E1H], for which the protein stability index turned out to be 3.66. On the same count and under the same terms, the result for KNLFTGEDLDELEEELNTLDLEE [E1K] reads 3.59; that for CNLFTGEDLDELEEELNTLDLEE [E1C], 3.8. Same read-out and setting: in the case of MNLFTGEDLDELEEELNTLDLEE [E1M] it was 3.76; in that of ANLFTGEDLDELEEELNTLDLEE [E1A], 4.26. On the same count and under the same terms, the result for DNLFTGEDLDELEEELNTLDLEE [E1D] reads 4.19. As to LNLFTGEDLDELEEELNTLDLEE [E1L], the protein stability index was found to be 4.16.

INLFTGEDLDELEEELNTLDLEE [E1I]: the protein stability index worked out at 3.24. On the same count and under the same terms, the result for FNLFTGEDLDELEEELNTLDLEE [E1F] reads 3.23.

Variants of B2 are the subject of another series. Described as above. The following applies: c terminus: a fixed tail appended.
For the variant FLGSSFSPVRCGGPGDGSPRGCGA [A17G], the protein stability index amounted to 2.07. Same read-out and setting: the result for FLGSSFSPVRCGGPGDYSPRGCGA [A17Y] reads 1.95; that for FLGSSFSPVRCGGPGDTSPRGCGA [A17T], 1.4. The same measure, in the same setting: in the case of FLGSSFSPVRCGGPGDKSPRGCGA [A17K] it was 1.53; in that of FLGSSFSPVRCGGPGDHSPRGCGA [A17H], 1.8; in that of FLGSSFSPVRCGGPGDCSPRGCGA [A17C], 2.06.

As for FLGSSFSPVRCGGPGDPSPRGCGA [A17P], the protein stability index turned out to be 2.31.

On to FLGSSFSPVRCGGPGDSSPRGCGA [A17S], for which the protein stability index turned out to be 1.39. Same read-out and setting: in the case of FLGSSFSPVRCGGPGDWSPRGCGA [A17W] it was 2.29.

For the variant FLGSSFSPVRCGGPGDMSPRGCGA [A17M], the protein stability index was determined as 1.56. Same read-out and setting: the result for FLGSSFSPVRCGGPGDQSPRGCGA [A17Q] reads 1.53.

As to FLGSSFSPVRCGGPGDRSPRGCGA [A17R], the protein stability index came to 2.21. For the variant FLGSSFSPVRCGGPGDESPRGCGA [A17E], the protein stability index was found to be 1.95. The same measure, in the same setting: the result for FLGSSFSPVRCGGPGDISPRGCGA [A17I] reads 1.87. The same measure, in the same setting: the result for FLGSSFSPVRCGGPGDDSPRGCGA [A17D] reads 2.34.

Turning to FLGSSFSPVRCGGPGDFSPRGCGA [A17F], the protein stability index was determined as 1.54. Same read-out and setting: the result for FLGSSFSPVRCGGPGDLSPRGCGA [A17L] reads 1.78; that for FLGSSFSPVRCGGPGDVSPRGCGA [A17V], 1.47. Take FLGSSFSPVRCGGPGDNSPRGCGA [A17N]: the protein stability index is 1.99.

As to FLGSSFSPVRCGGPGDASPRGCKA [G23K], the protein stability index worked out at 1.71. For the variant FLGSSFSPVRCGGPGDASPRGCRA [G23R], the protein stability index is 1.79.

Turning to FLGSSFSPVRCGGPGDASPRGCLA [G23L], the protein stability index amounted to 1.09. In the case of FLGSSFSPVRCGGPGDASPRGCTA [G23T], the protein stability index amounted to 1.7. The same measure, in the same setting: in the case of FLGSSFSPVRCGGPGDASPRGCPA [G23P] it was 2.06; in that of FLGSSFSPVRCGGPGDASPRGCDA [G23D], 2.22. Take FLGSSFSPVRCGGPGDASPRGCMA [G23M]: the protein stability index came to 1.63. On the same count and under the same terms, the result for FLGSSFSPVRCGGPGDASPRGCEA [G23E] reads 1.75. The same measure, in the same setting: in the case of FLGSSFSPVRCGGPGDASPRGCIA [G23I] it was 2.35; in that of FLGSSFSPVRCGGPGDASPRGCNA [G23N], 1.66. On the same count and under the same terms, the result for FLGSSFSPVRCGGPGDASPRGCSA [G23S] reads 1.82; that for FLGSSFSPVRCGGPGDASPRGCFA [G23F], 2.37; that for FLGSSFSPVRCGGPGDASPRGCQA [G23Q], 1.73.

As for FLGSSFSPVRCGGPGDASPRGCCA [G23C], the protein stability index is 2.64. Same read-out and setting: the result for FLGSSFSPVRCGGPGDASPRGCAA [G23A] reads 2.4.

In the case of FLGSSFSPVRCGGPGDASPRGCVA [G23V], the protein stability index was 1.73. The same measure, in the same setting: in the case of FLGSSFSPVRCGGPGDASPRGCYA [G23Y] it was 1.4; in that of FLGSSFSPVRCGGPGDASPRGCHA [G23H], 3.02.

Turning to FLGSSFSPVRCGGPGDASPRKCGA [G21K], the protein stability index was determined as 1.81. Same read-out and setting: the result for FLGSSFSPVRCGGPGDASPRWCGA [G21W] reads 1.38. Same read-out and setting: the result for FLGSSFSPVRCGGPGDASPRHCGA [G21H] reads 1.87; that for FLGSSFSPVRCGGPGDASPRYCGA [G21Y], 1.69; that for FLGSSFSPVRCGGPGDASPRPCGA [G21P], 1.91. Still for that read-out and setting: in the case of FLGSSFSPVRCGGPGDASPRTCGA [G21T] it was 2.08; in that of FLGSSFSPVRCGGPGDASPRVCGA [G21V], 1.74; in that of FLGSSFSPVRCGGPGDASPRQCGA [G21Q], 2.17.

In the case of FLGSSFSPVRCGGPGDASPRICGA [G21I], the protein stability index amounted to 1.97. Still for that read-out and setting: in the case of FLGSSFSPVRCGGPGDASPRDCGA [G21D] it was 1.64; in that of FLGSSFSPVRCGGPGDASPRLCGA [G21L], 1.95. Take FLGSSFSPVRCGGPGDASPRACGA [G21A]: the protein stability index came out at 1.92. On to FLGSSFSPVRCGGPGDASPRSCGA [G21S], for which the protein stability index came to 1.67. On the same count and under the same terms, the result for FLGSSFSPVRCGGPGDASPRRCGA [G21R] reads 1.96; that for FLGSSFSPVRCGGPGDASPRCCGA [G21C], 3.5. As to FLGSSFSPVRCGGPGDASPRMCGA [G21M], the protein stability index was 1.76. The same measure, in the same setting: in the case of FLGSSFSPVRCGGPGDASPRFCGA [G21F] it was 1.64; in that of FLGSSFSPVRCGGPGDASPRNCGA [G21N], 1.55. Same read-out and setting: in the case of FLGSSFSPVRCGGPGDASPRECGA [G21E] it was 2.06. Still for that read-out and setting: in the case of FLGSSFSPVRCGGPMDASPRGCGA [G15M] it was 1.88; in that of FLGSSFSPVRCGGPQDASPRGCGA [G15Q], 1.45; in that of FLGSSFSPVRCGGPSDASPRGCGA [G15S], 2.02. With FLGSSFSPVRCGGPLDASPRGCGA [G15L], the protein stability index came to 2.68.

Regarding FLGSSFSPVRCGGPRDASPRGCGA [G15R], the protein stability index came out at 1.56. On the same count and under the same terms, the result for FLGSSFSPVRCGGPPDASPRGCGA [G15P] reads 1.75; that for FLGSSFSPVRCGGPNDASPRGCGA [G15N], 1.77; that for FLGSSFSPVRCGGPTDASPRGCGA [G15T], 2.25. Still for that read-out and setting: in the case of FLGSSFSPVRCGGPWDASPRGCGA [G15W] it was 3.02; in that of FLGSSFSPVRCGGPYDASPRGCGA [G15Y], 2.37. Same read-out and setting: in the case of FLGSSFSPVRCGGPVDASPRGCGA [G15V] it was 1.65. Turning to FLGSSFSPVRCGGPGDAAPRGCGA [S18A], the protein stability index worked out at 1.71. On the same count and under the same terms, in the case of FLGSSFSPVRCGGPGDAMPRGCGA [S18M] it was 1.62; in that of FLGSSFSPVRCGGPGDAWPRGCGA [S18W], 2.3; in that of FLGSSFSPVRCGGPGDAVPRGCGA [S18V], 2.09. On the same count and under the same terms, the result for FLGSSFSPVRCGGPGDATPRGCGA [S18T] reads 1.42; that for FLGSSFSPVRCGGPGDAQPRGCGA [S18Q], 1.96; that for FLGSSFSPVRCGGPGDAGPRGCGA [S18G], 1.98. Turning to FLGSSFSPVRCGGPGDAPPRGCGA [S18P], the protein stability index amounted to 2.89.

FLGSSFSPVRCGGPGDAHPRGCGA [S18H]: the protein stability index was 1.83. The same measure, in the same setting: in the case of FLGSSFSPVRCGGPGDALPRGCGA [S18L] it was 2; in that of FLGSSFSPVRCGGPGDADPRGCGA [S18D], 2.16. Same read-out and setting: in the case of FLGSSFSPVRCGGPGDAFPRGCGA [S18F] it was 1.86; in that of FLGSSFSPVRCGGPGDANPRGCGA [S18N], 1.84; in that of FLGSSFSPVRCGGPGDACPRGCGA [S18C], 1.86. On to FLGSSFSPVRCGGPGDAEPRGCGA [S18E], for which the protein stability index is 2.15. Still for that read-out and setting: the result for FLGSSFSPVRCGGPGDAIPRGCGA [S18I] reads 1.75; that for FLGSSFSPVRCGGPGDARPRGCGA [S18R], 1.68; that for FLGSSFSPVRCGGPGDAYPRGCGA [S18Y], 1.65.
